Measurements reported in article PMC2875016.

Columns and labels:
[1] = biological target: HpNikR mutant M5 (H74G, H75G) (Helicobacter pylori); experiment: crystal structure
[2] = biological target: HpNikR mutant M6 (C96S) (Helicobacter pylori); experiment: crystal structure

Row | Substance | stoichiometry N [1] | stoichiometry N [2]
1 | HpNikR mutant M5 (H74G, H75G) (natural protein) | 4 | 
2 | HpNikR mutant M6 (C96S) (natural protein) |  | 4
